Experimental findings from paper PMC3561363, “A Novel Retro-Inverso Peptide Inhibitor Reduces Amyloid Deposition, Oxidation and Inflammation and Stimulates Neurogenesis in the APPswe/PS1ΔE9 Mouse Model of Alzheimer’s Disease” (PLoS ONE, 2013) are described below.

The target in the test is T1, Aβ(1–42) (UniProt P05067 672-713).
T1 construct: also called Aβ42; β-amyloid (Aβ) peptide; source: bought: rPeptide (recombinant Aβ42, Ultrapure)
Description: SPR; Aβ42 fibrils immobilised by amine coupling on a COOH5 chip (~5,000 RU), Sensi Q; RI-OR2-TAT injected at 1, 3 and 6 µM in PBS with 0.005% Tween 20 for 5 min at 30 µl/min; empty reference surface subtracted; each concentration fitted separately, 1:1 Langmuir model; apparent. The settings on record: both partners purified. In general terms: In SPR one partner is held on a chip, and binding of the other changes the refractive index at the surface.

B1: RI-OR2-TAT (Ac-rGffvlkGrrrrqrrkkrGy-NH2) (peptide)
peptide: RGFFVLKGRRRRQRRKKRGY
HELM: PEPTIDE1{[ac].[dR].G.[dF].[dF].[dV].[dL].[dK].G.[dR].[dR].[dR].[dR].[dQ].[dR].[dR].[dK].[dK].[dR].G.[dY].[am]}$$$$V2.0
SMILES: CC(=O)N[C@H](CCCNC(=N)N)C(=O)NCC(=O)N[C@H](Cc1ccccc1)C(=O)N[C@H](Cc1ccccc1)C(=O)N[C@@H](C(=O)N[C@H](CC(C)C)C(=O)N[C@H](CCCCN)C(=O)NCC(=O)N[C@H](CCCNC(=N)N)C(=O)N[C@H](CCCNC(=N)N)C(=O)N[C@H](CCCNC(=N)N)C(=O)N[C@H](CCCNC(=N)N)C(=O)N[C@H](CCC(N)=O)C(=O)N[C@H](CCCNC(=N)N)C(=O)N[C@H](CCCNC(=N)N)C(=O)N[C@H](CCCCN)C(=O)N[C@H](CCCCN)C(=O)N[C@H](CCCNC(=N)N)C(=O)NCC(=O)N[C@H](Cc1ccc(O)cc1)C(N)=O)C(C)C
notes: source: synthetic peptide, custom made by Cambridge Peptides (>95% purity)
In the case of B1, the Kd was 58 to 125 nM, the off-rate (koff) stood at 0.00037 s⁻¹ and the kon was determined as 3680 M⁻¹ s⁻¹.

Usually koff stands for the rate constant with which the complex falls apart. Usually kon stands for the rate constant with which the complex forms.
